Drawing on PMC11997328, “Structural and functional characterization of the extended-diKH domain from the antiviral endoribonuclease KHNYN”, this text covers binding result and Kd for 9 molecules.

One may read the Kd as the free concentration of one partner at which half of the binding sites on the other are occupied at equilibrium, for simple one-to-one binding.

Series [1] concerns the target T1, KHNYN ex-diKH (human, UniProt O15037 8-200). The experiment in a line: EMSA; 20 uM protein, 0.2 uM RNA; BLI: 20 mM Tris pH 8.0, 50 mM NaCl, 0.5 mM TCEP, 0.01% Tween 20, 8 U/ml RNasin Plus, 25 °C; EMSA: 20 mM Tris pH 8.0, 50 mM NaCl, 0.5 mM TCEP, 5% glycerol, room. As to conditions: protein: recombinant; tags: N-terminal StrepII tag removed by HRV 3C protease; label: 5'-FAM.

The target in series [2] is T2, ZAP RBD (human, UniProt Q7Z2W4 1-227). The series can be described thus: BLI; BLI: 20 mM Tris pH 8.0, 50 mM NaCl, 0.5 mM TCEP, 0.01% Tween 20, 8 U/ml RNasin Plus, 25 °C; EMSA: 20 mM Tris pH 8.0, 50 mM NaCl, 0.5 mM TCEP, 5% glycerol, room. The following applies: protein: recombinant; tags: N-terminal StrepII tag removed by HRV 3C protease; label: 5'-biotin.
T2 sequence (Q7Z2W4 1-227): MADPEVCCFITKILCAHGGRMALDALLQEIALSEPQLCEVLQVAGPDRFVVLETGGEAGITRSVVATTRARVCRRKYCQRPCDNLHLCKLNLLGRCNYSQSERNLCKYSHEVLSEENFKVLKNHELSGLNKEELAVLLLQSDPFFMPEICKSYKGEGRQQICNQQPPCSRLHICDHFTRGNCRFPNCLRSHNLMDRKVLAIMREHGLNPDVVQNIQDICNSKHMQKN
The target in series [3] is T1, KHNYN ex-diKH. The series can be described thus: BLI; up to 100 uM protein; BLI: 20 mM Tris pH 8.0, 50 mM NaCl, 0.5 mM TCEP, 0.01% Tween 20, 8 U/ml RNasin Plus, 25 °C; EMSA: 20 mM Tris pH 8.0, 50 mM NaCl, 0.5 mM TCEP, 5% glycerol, room. The following applies: protein: recombinant; tags: N-terminal StrepII tag removed by HRV 3C protease; label: 5'-biotin. On the technique in general: BLI is a label-free optical method that tracks binding on a fibre tip over time.

For series [4], the target named is T2, ZAP RBD. The experiment in a line: EMSA; 2 uM protein, 0.2 uM RNA; BLI: 20 mM Tris pH 8.0, 50 mM NaCl, 0.5 mM TCEP, 0.01% Tween 20, 8 U/ml RNasin Plus, 25 °C; EMSA: 20 mM Tris pH 8.0, 50 mM NaCl, 0.5 mM TCEP, 5% glycerol, room. As to conditions: protein: recombinant; tags: N-terminal StrepII tag removed by HRV 3C protease; label: 5'-FAM. (A gel shift assay detects complexes by their altered migration in electrophoresis.)

The next series concerns the target IMP1(KH1-KH2) (UniProt Q9NZI8 194-369). The series can be described thus: BLI; low uM affinity; value not in material; BLI: 20 mM Tris pH 8.0, 50 mM NaCl, 0.5 mM TCEP, 0.01% Tween 20, 8 U/ml RNasin Plus, 25 °C; EMSA: 20 mM Tris pH 8.0, 50 mM NaCl, 0.5 mM TCEP, 5% glycerol, room. As to conditions: protein: recombinant; label: 5'-biotin.

T1 sequence (O15037 8-200): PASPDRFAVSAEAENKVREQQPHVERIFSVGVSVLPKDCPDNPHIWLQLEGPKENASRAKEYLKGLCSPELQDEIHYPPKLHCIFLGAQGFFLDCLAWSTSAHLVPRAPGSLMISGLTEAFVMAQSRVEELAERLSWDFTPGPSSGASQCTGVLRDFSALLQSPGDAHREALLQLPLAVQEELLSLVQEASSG
Chain of IMP1(KH1-KH2) (Q9NZI8 194-369): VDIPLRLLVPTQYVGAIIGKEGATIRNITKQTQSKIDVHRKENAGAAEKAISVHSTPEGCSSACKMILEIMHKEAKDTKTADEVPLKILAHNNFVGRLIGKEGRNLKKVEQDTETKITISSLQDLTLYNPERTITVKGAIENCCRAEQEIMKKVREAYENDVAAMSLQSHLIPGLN

In the case of GUAACUAAUACUCUAUUUUGUUAAUCAGAUAAU (ssRNA) [AU-rich 33mer], the binding result in the series with KHNYN ex-diKH [1] is given as “no binding”.

As for AUAACAAAUACACUAAAAUACAAAUCAGAAAAU (ssRNA) [A-rich 33mer], in the series with KHNYN ex-diKH [1], the binding result is reported as “no binding”.

Regarding UUCAGGU (ssRNA) [non-CpG RNA (Bi-UUCAGGU)], the Kd with ZAP RBD [2] was 740 nM. For the same molecule, the binding result with KHNYN ex-diKH [3] is on record as “no binding”.

Take CUCCUCCCUACACUCCCCUCUCCCGCCGCCCCU (ssRNA) [C-rich 33mer]: the binding result with KHNYN ex-diKH [1] is reported as “no binding”.

GCAACGACGACGCUAUUUUGCGCAUCAGACGCG (ssRNA) [CpG-rich 33mer]: the binding result with ZAP RBD [4] is “binds”; in the series with KHNYN ex-diKH [1], “no binding”.

For the molecule UAAUCGU (ssRNA) [CpG RNA (Bi-UAAUCGU)], in the series with ZAP RBD [2], the dissociation constant (Kd) turned out to be 30 nM. The binding result in the series with KHNYN ex-diKH [3] is on record as “no binding”.

Consider GUUUCUUUUACUCUUUGUUACUUUUCAGUUAAU (ssRNA) [U-rich 33mer], for which, in the series with KHNYN ex-diKH [1], the binding result was “no binding”.

As to GCAACCACCACUCUAUUUUGUGCAUCAGAUGCU (ssRNA) [CpG-depleted 33mer], in the series with KHNYN ex-diKH [1], the binding result is “no binding”.

UUCUGUU (ssRNA) [CUG RNA (Bi-UUCUGUU)]: the results for the binding result with KHNYN ex-diKH [3] and in the series with IMP1(KH1-KH2) were “no binding” and “binds”, respectively.
